The Human Domainome abundance scans (Beltran et al. 2025)

B1: Calcium-binding protein 2, residues 155 to 219; numbered along this chain, Q9NPB3 (parent)
chain: RELRDAFREFDTNGDGRISVGELRAALKALLGERLSQREVDEILQDVDLNGDGLVDFEEFVRMMS

Variants of: B1
Test: abundance fitness (aPCA) (normalised: wild type 0, dead -1); higher = more abundant; growth selection in yeast, the domain comes from the species named
Details: Homo sapiens

Abundance fitness of substitutions, site by site:
F60: C -0.176; H -0.875; W -0.012; T -0.306; V -0.278; K -1.08; P -0.896; A -0.471; Q -0.899; E -0.672; R -0.798; S -0.326; M -0.116; D -0.71; L -0.228; I 0.116
L54: E -0.07; G 0.099; A -0.211; R -0.283; Y -0.177; H -0.292; T 0.012; K -0.207; F -0.212; V -0.241; P -0.291; W -0.346; C -0.21; Q -0.088; I -0.223; D -0.208
G53: E -0.199; L -0.23; D -0.088; R -0.397; P -0.188; M -0.141; W -0.361; S -0.05; T -0.107; C -0.121; A -0.115; Y -0.012; H 0.011; V -0.063; I -0.147
R62: E -0.307; F -0.218; L -0.21; T -0.182; V -0.074; N -0.111; W -0.102; P -0.37; C -0.124; G -0.025; Y -0.2; D 0.077; Q -0.145; H -0.233; S -0.065
E59: F -0.146; V 0.083; L 0.071; G -0.171; C 0.033; I -0.051; W -0.259; A -0.072; Q -0.025; S -0.075; P -0.1; D -0.405; N -0.282; H -0.164; M 0.059; K -0.092; R -0.089; Y -0.157; T 0.088
V55: M -0.338; K -0.691; C -0.023; P -0.874; W -0.192; N -0.714; D -1.16; F 0.048; L -0.028; Q -0.391; G -0.829; A -0.189; H -0.382; R -0.78; I -0.185; T -0.038; E -1.02; S -0.394
D56: A 0.002; L -0.201; C -0.321; S 0.078; P 0.009; N -0.022; I -0.12; Q -0.153; W -0.531; G -0.031; K -0.103; H -0.015; Y -0.198; E 0.12; V 0.044; F -0.862; T 0.019; R -0.088; M -0.262
M64: R 0.109; W 0.104; G 0.008; D -0.255; Q -0.041; I -0.014; Y 0.209; S 0.174; N 0.171; H 0.098; T 0.015; C 0.067; V 0.157; E 0.301; P -0.555; K -0.075; L -0.025
D52: R -0.149; I -0.126; A 0.009; Q -0.121; Y -0.18; S -0.133; H -0.049; E 0.043; M -0.168; F -0.414; K -0.094; T -0.196; P -0.145; C -0.124; L -0.108
G51: Y -0.107; W -0.301; V 0.003
V61: A -0.054; S 0.128; C -0.014; L -0.012; K -0.029; P -0.445; W -0.114; T -0.044; I -0.149; R -0.04; E 0.012; Q -0.051; H 0.011; G -0.005; D 0.009; M -0.325; F -0.134; Y -0.013
E58: C -0.576; T -0.088; V -0.105; W -0.431; S -0.019; Y -0.43; F -0.331; R -0.117; K 0.102; H -0.008; L -0.008; M -0.202; G -0.003; D -0.061; P -0.025; A -0.077; Q -0.102
M63: Y -0.108; G -0.16; F -0.081; D -0.323; E -0.721; S -0.158; P -0.614; K -0.459; L 0.101; R -0.404; W -0.003; A -0.048; T 0.102; V 0.047; C -0.058; Q -0.035; N 0.057; H 0.05
